From article PMC3398191

T1: Atl1 (MBP fusion cleaved with Factor Xa) (Schizosaccharomyces pombe, UniProt Q9UTN9 1-108)
T1 sequence: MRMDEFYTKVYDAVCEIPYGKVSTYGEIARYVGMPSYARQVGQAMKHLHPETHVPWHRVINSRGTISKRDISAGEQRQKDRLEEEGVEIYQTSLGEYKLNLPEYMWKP

B1: G control 23-mer duplex (dsDNA)
DNA 1: GAACTGCAGCTCCGTGCTGGCCC
DNA 2: GGGCCAGCACGGAGCTGCAGTTC
B2: O6-MeG 23-mer duplex (dsDNA)
DNA 1: GAACTGCAGCTCCGTGCTGGCCC
DNA 2: GGGCCAGCACGGAGCTGCAGTTC
modifications: O6-methylguanine at G6 of strand 1
B3: O6-CMG 23-mer duplex (dsDNA)
DNA 1: GAACTGCAGCTCCGTGCTGGCCC
DNA 2: GGGCCAGCACGGAGCTGCAGTTC
modifications: O6-carboxymethylguanine at G6 of strand 1
B4: O6-EtG 23-mer duplex (dsDNA)
DNA 1: GAACTGCAGCTCCGTGCTGGCCC
DNA 2: GGGCCAGCACGGAGCTGCAGTTC
modifications: O6-ethylguanine at G6 of strand 1
B5: O6-HOEtG 23-mer duplex (dsDNA)
DNA 1: GAACTGCAGCTCCGTGCTGGCCC
DNA 2: GGGCCAGCACGGAGCTGCAGTTC
modifications: O6-hydroxyethylguanine at G6 of strand 1
B6: O6-PrG 23-mer duplex (dsDNA)
DNA 1: GAACTGCAGCTCCGTGCTGGCCC
DNA 2: GGGCCAGCACGGAGCTGCAGTTC
modifications: O6-n-propylguanine at G6 of strand 1
B7: O6-BuG 23-mer duplex (dsDNA)
DNA 1: GAACTGCAGCTCCGTGCTGGCCC
DNA 2: GGGCCAGCACGGAGCTGCAGTTC
modifications: O6-n-butylguanine at G6 of strand 1
B8: O6-BnG 23-mer duplex (dsDNA)
DNA 1: GAACTGCAGCTCCGTGCTGGCCC
DNA 2: GGGCCAGCACGGAGCTGCAGTTC
modifications: O6-benzylguanine at G6 of strand 1
B9: O6-PobG 23-mer duplex (dsDNA)
DNA 1: GAACTGCAGCTCCGTGCTGGCCC
DNA 2: GGGCCAGCACGGAGCTGCAGTTC
modifications: O6-pyridyloxobutylguanine at G6 of strand 1
B10: O6-BTG 23-mer duplex (dsDNA)
DNA 1: GAACTGCAGCTCCGTGCTGGCCC
DNA 2: GGGCCAGCACGGAGCTGCAGTTC
modifications: O6-(4-bromothenyl)guanine at G6 of strand 1

Assays:
[1] = target: T1, Atl1 (MBP fusion cleaved with Factor Xa); assay: EMSA
[2] = target: Maltose-binding protein (MBP) (UniProt P0AEX9 27-396); assay: EMSA

Binder	binding result [1]	binding result [2]
B1	no binding	–
B2	binds	no binding
B3	binds	–
B4	binds	–
B5	binds	–
B6	binds	–
B7	binds	–
B8	binds	–
B9	binds	–
B10	binds	–
